# Columns and labels:
# Assay type in all cases: cell-based
# RAJI cells = assay: JNG assay, co-culture with RAJI cells; conditions: JNG cells expressing construct, co-culture with Raji
# How it was run: (§1)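 Read-out is NFAT-driven GFP measured by flow cytometry after ~4–18 h co-culture of SAR-expressing JNG cells with target cells (E:T about 1:2). SARs were introduced by lentiviral spinfection and selected with puromycin or blasticidin when possible; scores (+/- to 5+ ≈ 5–50% GFP+) are relative to parental JNG cells.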
# L363 cells = assay: JNG assay, co-culture with L363 cells; conditions: co-culture with L363
# How it was run: as §1
# Nalm6 cells = assay: JNG assay, co-culture with Nalm6 cells; conditions: co-culture with Nalm6
# Procedure: Cellular supernatant is collected and assayed for the induction of cytokines (e.g., IL2).
# JNG (Jurkat cells expressing EGFP under an NFAT promoter) were infected with lentiviral vectors encoding different single chain and multi-chain SARs by spinfection in the presence of 8 µg/ml of Polybrene® (Sigma, Catalog no. H9268). The Jurkat-NFAT-GFP cells are engineered in such a way that the IL-2 promoter, which carries NFAT binding sites, is cloned upstream of the GFP gene. These cells have been used to study signaling via TCR and CAR. The different SARs were stably expressed in Jurkat NFAT-GFP cells by lentiviral mediated gene transfer, followed by selection with puromycin or blasticidin. No drug selection was used in case the construct lacked an antibiotic resistance gene. The SAR-expressing Jurkat-NFAT-GFP cells were cocultured with the target cells at E:T ratio of approximately 1:2 for approximately 4 hours to 18 hours. When the interaction between SIRs and their target antigen results in activation of the NFAT pathway, GFP expression is induced. […] GFP expression was monitored by FACS analysis. The Jurkat-NFAT-GFP (parental) cells were used as control. The structure of different constructs can be determined based on their names. For example, the construct CD8SP-CD19-hu-mROO5-1-vL-[hTCRa-C SDVP]-F-F2A-Spe-IgHSP-Apa-CD20-vHH-2HCD25-G4S-CDl9-hu-mROO5-1-vH-Mlu-[hTCRb-KACIAH]-F-P2A-PAC has the following modules from 5′ to 3′ direction: a CD8 signal peptide (CD8SP), the CD19 targeting hu-mROO5-1 vL fragment (CD19-hu-mROO5-1), Xho1 cloning site, human TCRa constant chain containing CSDVP mutations (hTCRa-CSDVP), Furine cleavage site (F), F2A ribosomal skip sequence (F2A), SpeI site, human IgH signal peptide (IgHSP), Apa I restriction enzyme site, camelid CD20-2HCD25-VHH module targeting CD20, BamHI restriction enzyme site, Glycinex4-serine linker (G4S), BstI restriction enzyme site, CD19-hu-mROO5-1-vH fragment targeting CD19, Mlu I restriction enzyme site, human TCRb constant chain containing KACIAH mutations ([hTCRb-KACIAH]), Furine cleavage site (F), P2A ribosomal skip sequence and Puromycin resistance gene (PAC). The sequence of the other constructs in the table can be similarly determined from their names and by referring to the different Tables of this disclosure that provide the names and SEQ ID NO of the different modules. Alternatively, the composition and modular architecture of the different SAR constructs can be determined from their sequences by bioinformatics tools, including using nucleic acid and amino acids homology searches. A SAR is considered positive in the assay in case the SAR expressing Jurkat-NFAT-GFP cells show greater % GFP positive cells when cultured with the target cell line as compared to parental Jurkat-NFAT-GFP cells. The signs +/-, +, 2+ etc. after the name of the cell lines indicate the relative degree of positivity on the Jurkat-NFAT-GFP assay as measured by the % GFP positive cells after culture of the SAR expressing Jurkat-NFAT-GFP cells with that cell line above the % GFP cells observed in parental Jurkat NFAT-GFP cells serving as controls. In general, the number +/-, +, 2+, 3+, 4+, 5+ refer to approximately 5%, 10%, 20%, 30%, 40% and 50% GFP positive cells. The % of GFP induction in the above assay is dependent not only the relative strength of the SAR but also, among other factors, on the relative level of expression of the SAR in the JNG cells and the relative level of expression of the target antigen in the target cell line. To control for the difference in gene transduction efficiency of the different SAR constructs, the experiment was conducted with JNG cells transduced with SAR constructs co-expressing a drug resistance gene (e.g., puromycin or PAC) followed by drug selection to generate a stable population of SAR-expressing cells. […]
Molecule,NFAT-GFP ASSAY: Raji (RAJI cells),NFAT-GFP ASSAY: L363 (L363 cells),NFAT-GFP ASSAY: Nalm6 (Nalm6 cells)
22165 (protein) MALPVTALLLPLALLLHAARPACEVQLLESGGGLIQPGGSLRLSCAASGFTFSSHAMTWVRQAPGKGLEWVSAISGSGDYTHYADSVKGRFTISRDNSKNTVYLQMNSLRAEDSAVYYCAKDEDGGSLLGHRGQGTLVTVSSGTGGGGSGGGGSGGGGSEFDIQMTQSPSSLSASVGDRVTITCKASDHINNWLAWYQQKPGQAPKLLIYGATTLETGVPSRFSGSGSGTDYTLTISSLQPEDFATYYCQQSWNTPWTFGQGTKLEIKRLEDLKNVFPPEVAVFEPSEAEISHTQKATLVCLATGFYPDHVELSWWVNGKEVHSGVCTDPQPLKEQPALNDSRYCLSSRLRVSATFWQNPRNHFRCQVQFYGLSENDEWTQDRAKPVTQIVSAEAWGRADCGFTSESYQQGVLSATILYEILLGKATLYAVLVSALVLMAMVKRKDSRGRAKRSGSGATNFSLLKQAGDVEENPGPTSATMDWIWRILFLVGAATGAHSGPEVQLVESGGGLVQAGGSLRLSCAASGRTFSMGWFRQAPGKEREFVAAITYSGGSPYYADSVKGRFTISRDNAKNTVYLQMNSLKPEDTAVYYCAANPTYGSDWNAENWGQGTQVTVSSGSGGGGSGGGGSGGGGSFEQVQLQQPGAELVKPGASVKMSCKASGYAFSSYWINWMKQKPGQGLEWIGQIYPGDGDTNYNGKFKGRATLTADTSSSTAYMQLSSLTSEDSAVYFCARSITTVVGCAMDYWGQGTSVTVSSTRIQNPDPAVYQLRDSKSSDKSVCLFTDFDSQTNVSQSKDSDVYITDKCVLDMRSMDFKSNSAVAWSNKSDFACANAFNNSIIPEDTFFPSPESSCDVKLVEKSFETDTNLNFQNLSVIGFRILLLKVAGFNLLMTLRLWSSRAKRSGSGVKQTLNFDLLKLAGDVESNPGPSRGHMTEYKPTVRLATRDDVPRAVRTLAAAFADYPATRHTVDPDRHIERVTELQELFLTRVGLDIGKVWVADDGAAVAVWTTPESVEAGAVFAEIGPRMAELSGSRLAAQQQMEGLLAPHRPKEPAWFLATVGVSPDHQGKGLGSAVVLPGVEAAERAGVPAFLETSAPRNLPFYERLGFTVTADVEVPEGPRTWCMTRKPGA,"Raji (+), L363 (+) (refer to approximately 5%, 10%, 20%, 30%, 40% and 50% GFP positive cells)","Raji (+), L363 (+) (refer to approximately 5%, 10%, 20%, 30%, 40% and 50% GFP positive cells)",–
22147 (protein) MALPVTALLLPLALLLHAARPACEVQLLESGGGLIQPGGSLRLSCAASGFTFSSHAMTWVRQAPGKGLEWVSAISGSGDYTHYADSVKGRFTISRDNSKNTVYLQMNSLRAEDSAVYYCAKDEDGGSLLGHRGQGTLVTVSSGTGGGGSGGGGSGGGGSEFDIQMTQSPSSLSASVGDRVTITCRASQDISNYLNWYQQKPGKAVKLLIYYTSILHSGVPSRFSGSGSGTDYTLTISSLQPEDFATYFCQQGNTLPWTFGGGTKVEIKLEADVSPKPTIFLPSIAETKLQKAGTYLCLLEKFFPDVIKIHWQEKKSNTILGSQEGNTMKTNDTYMKFSWLTVPEKSLDKEHRCIVRHENNKNGVDQEIIFPPIKTDVITMDPKDNCSKDANDTLLLQLTNTSAYYMYLLLLLKSVVYFAIITCCLLRRTAFCCNGEKSRAKRSGSGATNFSLLKQAGDVEENPGPTSMDWIWRILFLVGAATGAHSGPQVQLQESGGGLAQAGGSLRLSCAASGRTFSMGWFRQAPGKEREFVAAITYSGGSPYYASSVRGRFTISRDNAKNTVYLQMNSLKPEDTAVYYCAANPTYGSDWNAENWGQGTQVTVSSGSGGGGSGGGGSGGGGSFEVQLVESGGGLVKPGGSLKLSCAASGFAFSIYDMSWVRQAPGKGLEWVAYISSGGGTTYYPDTVKGRFTISRDNAKNTLYLQMSSLRAEDTAMYYCARHSGYGSSYGVLFAYWGQGTLVTVSSTRPHTKPSVFVMKNGTNVACLVKEFYPKDIRINLVSSKKITEFDPAIVISPSGKYNAVKLGKYEDSNSVTCSVQHDNKTVHSTDFEVKTDSTDHVKPKETENTKQPSKSCHKPKAIVHTEKVNMMSLTVLGLRMLFAKTVAVNFLLTAKLFFLRAKRSGSGVKQTLNFDLLKLAGDVESNPGPSRGHMTEYKPTVRLATRDDVPRAVRTLAAAFADYPATRHTVDPDRHIERVTELQELFLTRVGLDIGKVWVADDGAAVAVWTTPESVEAGAVFAEIGPRMAELSGSRLAAQQQMEGLLAPHRPKEPAWFLATVGVSPDHQGKGLGSAVVLPGVEAAERAGVPAFLETSAPRNLPFYERLGFTVTADVEVPEGPRTWCMTRKPGA,"+ (refer to approximately 5%, 10%, 20%, 30%, 40% and 50% GFP positive cells)","+ (refer to approximately 5%, 10%, 20%, 30%, 40% and 50% GFP positive cells)",–
22089 (protein) MALPVTALLLPLALLLHAARPQLQLQESGPGLVKPSETLSLTCTVSGDSISSGDYYWGWIRQPPGKGLEWIGHIYYSGVTYYNPSLKSRVTISVDTSRNQFSLKLSSVTAADTAVYYCTREDSSNWRSRGQGTLVTVSSLEGSGRADCGFTSESYQQGVLSATILYEILLGKATLYAVLVSALVLMAMVKRKDSRGRAKRSGSGATNFSLLKQAGDVEENPGPTSMDWIWRILFLVGAATGAHSFEVQLLESGGGLIQPGGSLRLSCAASGFTFSSHAMTWVRQAPGKGLEWVSAISGSGDYTHYADSVKGRFTISRDNSKNTVYLQMNSLRAEDSAVYYCAKDEDGGSLLGHRGQGTLVTVSSTRIQNPDPAVYQLRDSKSSDKSVCLFTDFDSQTNVSQSKDSDVYITDKCVLDMRSMDFKSNSAVAWSNKSDFACANAFNNSIIPEDTFFPSPESSCDVKLVEKSFETDTNLNFQNLSVIGFRILLLKVAGFNLLMTLRLWSSRAKRSGSGVKQTLNFDLLKLAGDVESNPGPSRGHMTEYKPTVRLATRDDVPRAVRTLAAAFADYPATRHTVDPDRHIERVTELQELFLTRVGLDIGKVWVADDGAAVAVWTTPESVEAGAVFAEIGPRMAELSGSRLAAQQQMEGLLAPHRPKEPAWFLATVGVSPDHQGKGLGSAVVLPGVEAAERAGVPAFLETSAPRNLPFYERLGFTVTADVEVPEGPRTWCMTRKPGA,"+ (refer to approximately 5%, 10%, 20%, 30%, 40% and 50% GFP positive cells)","2+ (refer to approximately 5%, 10%, 20%, 30%, 40% and 50% GFP positive cells)",–
21985 (protein) MALPVTALLLPLALLLHAARPQLQLQESGPGLVKPSETLSLTCTVSGDSISSGDYYWGWIRQPPGKGLEWIGHIYYSGVTYYNPSLKSRVTISVDTSRNQFSLKLSSVTAADTAVYYCTREDSSNWRSRGQGTLVTVSSLEDLKNVFPPEVAVFEPSEAEISHTQKATLVCLATGFYPDHVELSWWVNGKEVHSGVCTDPQPLKEQPALNDSRYCLSSRLRVSATFWQNPRNHFRCQVQFYGLSENDEWTQDRAKPVTQIVSAEAWGRADCGFTSESYQQGVLSATILYEILLGKATLYAVLVSALVLMAMVKRKDSRGRAKRSGSGATNFSLLKQAGDVEENPGPTSMDWIWRILFLVGAATGAHSFEVQLLESGGGLIQPGGSLRLSCAASGFTFSSHAMTWVRQAPGKGLEWVSAISGSGDYTHYADSVKGRFTISRDNSKNTVYLQMNSLRAEDSAVYYCAKDEDGGSLLGHRGQGTLVTVSSTRIQNPDPAVYQLRDSKSSDKSVCLFTDFDSQTNVSQSKDSDVYITDKCVLDMRSMDFKSNSAVAWSNKSDFACANAFNNSIIPEDTFFPSPESSCDVKLVEKSFETDTNLNFQNLSVIGFRILLLKVAGFNLLMTLRLWSSRAKRSGSGVKQTLNFDLLKLAGDVESNPGPSRGHMTEYKPTVRLATRDDVPRAVRTLAAAFADYPATRHTVDPDRHIERVTELQELFLTRVGLDIGKVWVADDGAAVAVWTTPESVEAGAVFAEIGPRMAELSGSRLAAQQQMEGLLAPHRPKEPAWFLATVGVSPDHQGKGLGSAVVLPGVEAAERAGVPAFLETSAPRNLPFYERLGFTVTADVEVPEGPRTWCMTRKPGA,–,–,"+/- (refer to approximately 5%, 10%, 20%, 30%, 40% and 50% GFP positive cells)"

# Reference: patent US20230212319A1, “NOVEL ANTIGEN BINDING DOMAINS AND SYNTHETIC ANTIGEN RECEPTORS INCORPORATING THE SAME” (University of Southern California, priority 2020, published 2023)
